Laboratory results as given in article PMC10875708 (2024).

B1: Stearoyl-CoA desaturase (SCD1) [human (endogenous in HCT116)] / Sulfotransferase family 2B member 1 (SULT2B1) [human (endogenous in HCT116)] (parent complex)
chain 1: MPAHLLQDDISSSYTTTTTITAPPSRVLQNGGDKLETMPLYLEDDIRPDIKDDIYDPTYKDKEGPSPKVEYVWRNIILMSLLHLGALYGITLIPTCKFYTWLWGVFYYFVSALGITAGAHRLWSHRSYKARLPLRLFLIIANTMAFQNDVYEWARDHRAHHKFSETHADPHNSRRGFFFSHVGWLLVRKHPAVKEKGSTLDLSDLEAEKLVMFQRRYYKPGLLMMCFILPTLVPWYFWGETFQNSVFVATFLRYAVVLNATWLVNSAAHLFGYRPYDKNISPRENILVSLGAVGEGFHNYHHSFPYDYSASEYRWHINFTTFFIDCMAALGLAYDRKKVSKAAILARIKRTGDGNYKSG
chain 2: MDGPAEPQIPGLWDTYEDDISEISQKLPGEYFRYKGVPFPVGLYSLESISLAENTQDVRDDDIFIITYPKSGTTWMIEIICLILKEGDPSWIRSVPIWERAPWCETIVGAFSLPDQYSPRLMSSHLPIQIFTKAFFSSKAKVIYMGRNPRDVVVSLYHYSKIAGQLKDPGTPDQFLRDFLKGEVQFGSWFDHIKGWLRMKGKDNFLFITYEELQQDLQGSVERICGFLGRPLGKEALGSVVAHSTFSAMKANTMSNYTLLPPSLLDHRRGAFLRKGVCGDWKNHFTVAQSEAFDRAYRKQMRGMPTFPWDEDPEEDGSPDPEPSPEPEPKPSLEPNTSLEREPRPNSSPSPSPGQASETPHPRPS

Variants of: B1
Assay: co-IP (IP: SCD1, IB: SULT2B1), band quantification; HCT116 cells; parent: 1; read off a plot

Row | Variant | ratio to parent
1 | chain 1 F178G | ~2.6
2 | chain 1 F178A | ~2.4
3 | chain 1 H83M | ~1.2

Further lines, results first:

Row | ratio to parent | Variant
4 | ~0.4 | chain 1 S80F
5 | ~0.5 | chain 1 S80E
6 | ~0.35 | chain 1 S80R
